Assay results as given in US20170022281A1 (AbbVie / Abbott, published 2017).
Where a chain is given by its changes, count along the chain named.

T1: cyno PRLR (Biacore antigen) (cyno, UniProt A0A2K5WXK1 25-234)
T1 construct: also called cyPRLR
T1 sequence: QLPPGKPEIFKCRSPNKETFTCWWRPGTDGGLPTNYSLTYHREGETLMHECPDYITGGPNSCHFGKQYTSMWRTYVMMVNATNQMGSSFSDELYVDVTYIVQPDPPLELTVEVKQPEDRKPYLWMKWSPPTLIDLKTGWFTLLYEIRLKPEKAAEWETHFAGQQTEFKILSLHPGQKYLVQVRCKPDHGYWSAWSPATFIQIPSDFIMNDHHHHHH

T2: murine PRLR (Biacore antigen) (murine, UniProt Q08501 20-229, limits assumed)
T2 construct: also called muPRLR
T2 sequence (looked up): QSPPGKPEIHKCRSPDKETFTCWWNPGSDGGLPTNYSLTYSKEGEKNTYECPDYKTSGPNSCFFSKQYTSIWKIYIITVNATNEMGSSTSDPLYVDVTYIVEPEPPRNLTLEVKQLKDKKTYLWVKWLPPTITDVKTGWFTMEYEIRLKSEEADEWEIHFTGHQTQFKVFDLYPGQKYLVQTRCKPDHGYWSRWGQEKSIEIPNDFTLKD

T3: human PRLR (Biacore antigen) (human, UniProt P16471 25-234, limits assumed)
T3 construct: The construct injected over captured antibody is not described (a soluble form is likely); also called huPRLR
T3 sequence: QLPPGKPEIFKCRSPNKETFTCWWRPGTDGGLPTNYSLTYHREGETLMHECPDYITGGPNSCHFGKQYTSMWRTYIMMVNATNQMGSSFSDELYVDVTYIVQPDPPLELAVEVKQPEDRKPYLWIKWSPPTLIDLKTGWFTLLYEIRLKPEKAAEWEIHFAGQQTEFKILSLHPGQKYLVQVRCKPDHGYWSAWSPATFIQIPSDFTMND

T4: human PRLR ECD-Fc fusion protein (human, UniProt P16471 25-233)
T4 construct: not shown: Fc region (captured by goat anti-human Fc)
T4 sequence: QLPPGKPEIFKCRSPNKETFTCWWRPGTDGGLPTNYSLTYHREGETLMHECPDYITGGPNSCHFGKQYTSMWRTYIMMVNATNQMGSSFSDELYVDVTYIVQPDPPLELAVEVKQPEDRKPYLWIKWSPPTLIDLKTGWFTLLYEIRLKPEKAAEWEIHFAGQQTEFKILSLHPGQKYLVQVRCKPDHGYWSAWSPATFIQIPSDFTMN

T5: rat PRLR ECD-Fc fusion protein (rat, UniProt P05710 20-229)
T5 construct: extracellular domain; not shown: Fc region (captured by goat anti-human Fc)
T5 sequence (looked up): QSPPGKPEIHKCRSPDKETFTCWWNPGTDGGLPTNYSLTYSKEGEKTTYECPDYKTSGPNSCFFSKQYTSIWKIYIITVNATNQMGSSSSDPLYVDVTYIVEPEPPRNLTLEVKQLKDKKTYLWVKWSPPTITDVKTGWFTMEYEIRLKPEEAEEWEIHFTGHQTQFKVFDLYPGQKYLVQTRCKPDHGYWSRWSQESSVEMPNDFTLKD

T6: mouse PRLR ECD-Fc fusion protein (mouse, UniProt Q08501 20-229)
T6 construct: extracellular domain; not shown: Fc region (captured by goat anti-human Fc)
T6 sequence (looked up): T2 sequence (looked up)

T7: human PRLR on cells (human, UniProt P16471 25-622)
T7 construct: Endogenous on T47D cells, transfected in Baf3-hPRLR cells; also called hPRLR; T47D cells
T7 sequence: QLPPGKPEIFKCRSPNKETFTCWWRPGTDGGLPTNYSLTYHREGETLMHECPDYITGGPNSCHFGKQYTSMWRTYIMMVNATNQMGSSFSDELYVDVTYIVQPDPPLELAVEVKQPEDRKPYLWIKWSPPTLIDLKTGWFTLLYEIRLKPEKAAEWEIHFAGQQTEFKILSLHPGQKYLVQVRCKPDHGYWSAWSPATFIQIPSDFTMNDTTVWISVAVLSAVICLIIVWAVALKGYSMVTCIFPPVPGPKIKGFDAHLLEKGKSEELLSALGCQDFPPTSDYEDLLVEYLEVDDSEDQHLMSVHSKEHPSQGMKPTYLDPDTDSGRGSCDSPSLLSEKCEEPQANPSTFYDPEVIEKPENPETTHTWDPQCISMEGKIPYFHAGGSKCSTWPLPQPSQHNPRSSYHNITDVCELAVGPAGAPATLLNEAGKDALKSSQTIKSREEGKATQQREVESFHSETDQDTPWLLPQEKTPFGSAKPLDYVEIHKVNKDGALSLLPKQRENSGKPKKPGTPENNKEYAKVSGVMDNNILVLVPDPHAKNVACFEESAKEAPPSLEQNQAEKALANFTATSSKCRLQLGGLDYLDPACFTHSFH

T8: cyno PRLR ECD-his6 protein (cyno)
T8 chain: T1 sequence

T9: rat PRLR on Nb2-11 rat lymphoma cells (rat, UniProt P05710 20-610)
T9 sequence (looked up): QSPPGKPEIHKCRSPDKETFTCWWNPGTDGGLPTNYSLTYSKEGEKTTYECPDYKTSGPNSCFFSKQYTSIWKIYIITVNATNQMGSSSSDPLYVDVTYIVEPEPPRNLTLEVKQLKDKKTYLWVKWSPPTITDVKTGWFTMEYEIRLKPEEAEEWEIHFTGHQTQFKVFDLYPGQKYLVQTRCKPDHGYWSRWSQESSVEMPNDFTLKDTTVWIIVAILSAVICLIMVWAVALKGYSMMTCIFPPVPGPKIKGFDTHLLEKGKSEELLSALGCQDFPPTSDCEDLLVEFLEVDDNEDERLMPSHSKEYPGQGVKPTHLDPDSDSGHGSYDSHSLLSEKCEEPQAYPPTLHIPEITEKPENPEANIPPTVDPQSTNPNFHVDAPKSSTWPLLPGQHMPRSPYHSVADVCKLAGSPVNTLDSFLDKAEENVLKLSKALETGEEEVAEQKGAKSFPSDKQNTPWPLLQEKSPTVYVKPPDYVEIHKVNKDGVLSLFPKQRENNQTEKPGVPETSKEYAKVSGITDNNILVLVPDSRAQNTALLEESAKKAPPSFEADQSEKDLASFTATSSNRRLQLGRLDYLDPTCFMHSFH

B1: Ab8 (antibody, V domains shown)
VH: EVQLQQSGPELVKPGASVKISCKASGYTFTDYNIHWVKQSHGKSLEWIGYIYPNNDGTGYNQKFKSKATLTVDNSSSTAYMEVRSLTSEDSAVYYCARGDGNYVGDMDYWGQGTSVTVSS
VL: DIQMTQSPASLSASVGETVTITCRASENIYSYLAWYQQKQGKPPQLLVYNAKTLAEGVPSRFSGGGSGTQFSLKINSLQPEDFGSYYCQHHYATPFTFGSGTKLEIK
notes: murine monoclonal, isotype G2b; also called murine Ab8
B2: Ab27 (antibody, human IgG1, kappa, V domains shown)
VH: EVQLVQSGAEVKKPGSSVKVSCKASGYTFTSFWMHWVRQAPGQGLEWMGVIDPSDTYTNYNQKFKGRVTITADESTSTAYMELSSLRSEDTAVYYCARGDYSNWFTYWGQGTLVTVSS
VL: DVVMTQTPLSLSVTPGQPASISCRSSQRLVHSNGNTYLHWYLQKPGQSPQLLIYKVSNRFSGVPDRFSGSGSGTDFTLKISRVEAEDVGVYFCSQSTHVPWTFGGGTKVEIKR
notes: humanized from Ab5; G1; also called Ab2 HC.1 and Ab2 LC.1a
B3: Ab29 (antibody, human IgG1, kappa)
heavy: not shown
light: DIVMTQTPLSLSVTPGQPASISCRSSQRLVHSNGNTYLHWYLQKPGQSPQLLIYKVSNRFSGVPDRFSGSGSGTDFTLKISRVEAEDVGVYYCSQSTHVPWTFGGGTKVEIKRTVAAPSVFIFPPSDEQLKSGTASVVCLLNNFYPREAKVQWKVDNALQSGNSQESVTEQDSKDSTYSLSSTLTLSKADYEKHKVYACEVTHQGLSSPVTKSFNRGEC
notes: humanized from Ab5; G1; also called Ab HC.1a and Ab2 LC.1
B4: Ab31 (antibody, human IgG1, kappa)
heavy: not shown
light: B3 light with I2V
notes: humanized from Ab5; G1; also called Ab2 HC.1a and Ab2 LC.1b
B5: chAb12 (antibody, human IgG1, kappa, V domains shown)
VH: DVQLQESGPGLVKPSQSLSLTCTVTGYSITSDYAWNWIRQFPGNKLEWMGYIGYSGRTSFNPSLKSRISITRDTSKNQFFLQLNSVTTEDTATYYCARGGFAMDYWGQGTSVTVSS
VL: QIVLTQSPGIMSASPGEKVTMTCSASSSVTYMYWYQQKPRSSPKPWIYLTSNLASGVPARFSGSGSGTSYSLTISSMEAEDGATYYCQQWSSTPPLTFGGGTKLELNT

Legend:
[1] = target: T1, cyno PRLR (Biacore antigen); assay: SPR Biacore
In short: (§1)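 Association rate, dissociation rate and dissociation constant were measured by surface plasmon resonance on a Biacore instrument. PRLR antigen was tested at 600 nM, 66.67 nM and 7.41 nM, a 3-point, 9-fold dilution series. Constants came from a 1:1 binding model fit (local Rmax, mass-transport term included) in Biacore T200 Evaluation Software.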

[2] = target: T2, murine PRLR (Biacore antigen); assay: SPR Biacore
In short: as §1

[3] = target: T3, human PRLR (Biacore antigen); assay: SPR Biacore
In short: as §1

[4] = target: T4, human PRLR ECD-Fc fusion protein; assay: ELISA on ECD
Procedure: (§2) Plates were blocked for 1 hour with Superblock (Pierce) and washed (3×) with wash buffer (lx PBS (pH 7.4), 0.05% Tween 20). ECD proteins were bound to the appropriate antibody (1 hour) in binding buffer (wash buffer plus 10% Superblock), washed (3×, wash buffer), and then incubated with serial dilutions of antibodies (1 hour) in binding buffer. After washing (3×, wash buffer), secondary antibodies conjugated to HRP were bound (1 hour) in binding buffer, washed (3×, wash buffer), and incubated with TMB substrate (Pierce) to develop signal for 3-5 minutes, stopped with 2N H₂SO₄ and scanned at […]. Curves were fit with GraphPad 5 (Prizm) and EC50's were determined with curve fitting function of GraphPad 5.

[5] = target: T5, rat PRLR ECD-Fc fusion protein; assay: ELISA on ECD
Procedure: as §2

[6] = target: T6, mouse PRLR ECD-Fc fusion protein; assay: ELISA on ECD
Procedure: as §2

human PRLR on cells [7] = target: T7, human PRLR on cells; assay: FACS T47D 10 ug/mL
human PRLR on cells [8] = target: T7, human PRLR on cells; assay: cell-based or functional assay
[9] = target: cyno PRLR on Baf3-cyPRLR cells (cyno); assay: cell-based or functional assay
[10] = target: T8, cyno PRLR ECD-his6 protein; assay: ELISA on ECD
Procedure: as §2

[11] = target: T9, rat PRLR on Nb2-11 rat lymphoma cells; assay: cell-based or functional assay

| Binder | Kd [1] [nM] | koff [1] [s⁻¹] | kon [1] [M⁻¹ s⁻¹] | Kd [2] [nM] | koff [2] [s⁻¹] | kon [2] [M⁻¹ s⁻¹] | Kd [3] [nM] | koff [3] [s⁻¹] | kon [3] [M⁻¹ s⁻¹] | EC50 [4] [nM] | EC50 [5] [nM] | EC50 [6] [nM] | FACS GeoMean-neg (human PRLR on cells [7]) | Baf3-hPRLR proliferation IC50 (human PRLR on cells [8]) [µg/mL] | T47D pPRLR ELISA IC50 (human PRLR on cells [8]) [µg/mL] | Baf3-cyPRLR proliferation IC50 [9] [µg/mL] | EC50 [10] [nM] | Nb2-11 proliferation IC50 [11] [µg/mL] |
| --- | --- | --- | --- | --- | --- | --- | --- | --- | --- | --- | --- | --- | --- | --- | --- | --- | --- | --- |
| B1 | 2.2 | 0.00116 | 526000 | 259 | 0.0466 | 180000 | 0.153 | 8.19e-05 | 536000 | 0.098 | 0.205 | 0.342 | 1530 | 1.15 | 0.219 | 1.64 | – | – |
| B2 | 1.56 | 0.00052 | 333000 | 38.3 | 0.00512 | 134000 | 1.25 | 0.000443 | 356000 | 0.17 | 0.125 | 0.185 | – | 0.16 | – | 0.22 | 0.102 | – |
| B3 | 2.24 | 0.000675 | 301000 | 53 | 0.00634 | 120000 | 1.79 | 0.00056 | 313000 | 0.269 | 0.689 | 0.238 | – | 0.15 | – | 0.23 | 0.153 | – |
| B4 | 2.08 | 0.000643 | 310000 | 55.7 | 0.00682 | 122000 | 1.67 | 0.000537 | 322000 | 0.453 | 0.718 | 0.333 | – | 0.17 | – | 0.39 | 0.256 | – |
| B5 | – | – | – | – | – | – | – | – | – | – | – | – | – | 10.7 | – | > 10 | – | 41.4 |
